The target in data set [1] is T1, PcrA Mge (Mycoplasma genitalium strain G37, UniProt P47486 1-703).
T1 sequence: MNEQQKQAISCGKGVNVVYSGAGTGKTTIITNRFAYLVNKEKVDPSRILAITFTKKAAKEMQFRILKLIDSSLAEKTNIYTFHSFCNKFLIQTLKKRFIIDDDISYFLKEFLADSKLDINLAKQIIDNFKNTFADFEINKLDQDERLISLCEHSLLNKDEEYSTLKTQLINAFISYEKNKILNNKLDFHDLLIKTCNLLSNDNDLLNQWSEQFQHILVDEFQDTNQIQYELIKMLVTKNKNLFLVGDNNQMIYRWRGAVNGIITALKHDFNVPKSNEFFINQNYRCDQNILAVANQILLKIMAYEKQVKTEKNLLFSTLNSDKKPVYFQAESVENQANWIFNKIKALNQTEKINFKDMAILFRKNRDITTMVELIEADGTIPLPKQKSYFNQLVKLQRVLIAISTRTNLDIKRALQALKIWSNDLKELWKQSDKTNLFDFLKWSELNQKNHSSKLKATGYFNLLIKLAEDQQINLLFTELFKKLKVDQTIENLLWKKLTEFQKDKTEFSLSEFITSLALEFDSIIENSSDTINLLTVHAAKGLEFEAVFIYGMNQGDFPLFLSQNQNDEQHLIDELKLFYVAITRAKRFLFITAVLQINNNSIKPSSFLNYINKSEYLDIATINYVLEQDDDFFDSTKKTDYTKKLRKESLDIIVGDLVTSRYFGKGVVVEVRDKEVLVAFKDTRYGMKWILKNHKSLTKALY
The experiment in a line: EMSA; 22-200 nM protein; 20 mM Tris-HCl pH 7.5, 1 mM DTT, 50 ng/ul BSA, 8 nM DNA, 15 min at room temperature, no Mg2+ or ATP listed; 6% PAGE in 1x TBE. As to conditions: protein: recombinant; tags: N-terminal MBP; label: 5' 6-FAM. (Mobility shift assays separate free from complexed probe on a gel.)

For data set [2], the target named is T2, PcrA Mpn (Mycoplasma pneumoniae strain M129, UniProt P75437 1-715).
T2 sequence: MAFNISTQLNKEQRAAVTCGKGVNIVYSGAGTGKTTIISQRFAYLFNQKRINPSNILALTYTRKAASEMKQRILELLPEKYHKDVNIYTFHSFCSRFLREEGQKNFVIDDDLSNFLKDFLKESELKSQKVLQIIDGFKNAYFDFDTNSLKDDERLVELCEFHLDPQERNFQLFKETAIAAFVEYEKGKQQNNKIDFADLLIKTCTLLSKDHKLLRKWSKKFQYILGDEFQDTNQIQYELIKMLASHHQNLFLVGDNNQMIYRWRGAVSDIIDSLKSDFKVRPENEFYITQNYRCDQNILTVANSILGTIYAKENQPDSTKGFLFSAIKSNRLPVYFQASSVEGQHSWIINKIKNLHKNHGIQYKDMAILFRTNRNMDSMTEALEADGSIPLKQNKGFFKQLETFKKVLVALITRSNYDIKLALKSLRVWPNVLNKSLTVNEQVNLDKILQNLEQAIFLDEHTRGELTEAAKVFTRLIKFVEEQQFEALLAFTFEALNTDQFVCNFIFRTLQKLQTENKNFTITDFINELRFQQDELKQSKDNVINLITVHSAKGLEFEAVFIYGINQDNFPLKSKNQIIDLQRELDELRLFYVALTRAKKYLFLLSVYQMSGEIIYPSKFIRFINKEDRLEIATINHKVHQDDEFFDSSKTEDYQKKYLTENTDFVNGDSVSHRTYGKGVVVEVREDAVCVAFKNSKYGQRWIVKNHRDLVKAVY
The description is as above. As to conditions: protein: recombinant; tags: N-terminal MBP; label: 5' 6-FAM.

The target of data set [3] is T3, PcrAs M129 (Mycoplasma pneumoniae strain M129, UniProt P75438 1-529).
T3 sequence: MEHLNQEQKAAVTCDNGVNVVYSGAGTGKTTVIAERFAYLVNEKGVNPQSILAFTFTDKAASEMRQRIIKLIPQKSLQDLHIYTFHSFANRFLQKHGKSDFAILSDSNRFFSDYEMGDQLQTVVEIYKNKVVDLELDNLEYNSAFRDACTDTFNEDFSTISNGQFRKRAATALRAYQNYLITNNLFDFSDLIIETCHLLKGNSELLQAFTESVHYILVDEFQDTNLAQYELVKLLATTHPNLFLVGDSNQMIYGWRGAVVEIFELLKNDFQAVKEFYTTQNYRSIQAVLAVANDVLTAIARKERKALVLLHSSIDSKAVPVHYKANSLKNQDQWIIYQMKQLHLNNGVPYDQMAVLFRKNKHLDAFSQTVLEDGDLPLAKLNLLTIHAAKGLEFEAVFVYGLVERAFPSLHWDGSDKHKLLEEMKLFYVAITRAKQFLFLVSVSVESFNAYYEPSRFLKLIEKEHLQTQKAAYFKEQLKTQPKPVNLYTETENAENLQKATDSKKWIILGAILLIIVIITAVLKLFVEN
Nature of the data set: EMSA; up to 200 nM protein; 20 mM Tris-HCl pH 7.5, 1 mM DTT, 50 ng/ul BSA, 8 nM DNA, 15 min at room temperature, no Mg2+ or ATP listed; 6% PAGE in 1x TBE. As to conditions: protein: recombinant, tags: N-terminal MBP.

The target in data set [4] is T1, PcrA Mge. Nature of the data set: EMSA; 22-200 nM protein; most complexes did not enter gel; 20 mM Tris-HCl pH 7.5, 1 mM DTT, 50 ng/ul BSA, 8 nM DNA, 15 min at room temperature, no Mg2+ or ATP listed; 6% PAGE in 1x TBE. The following applies: protein: recombinant; tags: N-terminal MBP; label: 5' 6-FAM on one strand; 3' overhang 24 nt.
Data set [5] addresses T2, PcrA Mpn. The data set is described as above. As to conditions: protein: recombinant; tags: N-terminal MBP; label: 5' 6-FAM on one strand; 3' overhang 24 nt.
Data set [6] addresses T1, PcrA Mge. The experiment in a line: EMSA; 22-200 nM protein; discrete complex IV; 20 mM Tris-HCl pH 7.5, 1 mM DTT, 50 ng/ul BSA, 8 nM DNA, 15 min at room temperature, no Mg2+ or ATP listed; 6% PAGE in 1x TBE. The following applies: protein: recombinant; tags: N-terminal MBP; label: 5' 6-FAM on one strand; 5' overhang 24 nt.
The target of data set [7] is T2, PcrA Mpn. Nature of the data set: EMSA; 22-200 nM protein; discrete complex III; 20 mM Tris-HCl pH 7.5, 1 mM DTT, 50 ng/ul BSA, 8 nM DNA, 15 min at room temperature, no Mg2+ or ATP listed; 6% PAGE in 1x TBE. As to conditions: protein: recombinant; tags: N-terminal MBP; label: 5' 6-FAM on one strand; 5' overhang 24 nt.

From article PMC3720892, “Functional Analysis of the Superfamily 1 DNA Helicases Encoded by Mycoplasma pneumoniae and Mycoplasma genitalium” come the findings set out here.

B1: oligonucleotide 1 (ssDNA)
DNA: CAAAGTAAGAGCTTCTCGAGCTGCGCAAGGATAGGTCGAATTTTCTCATTTT
As for B1, the binding result in data set [1] was “binds”; in data set [2], “binds”; in data set [3] (label: 5' 6-FAM), “no binding”.

B2: substrate a (dsDNA)
DNA 1: CAAAGTAAGAGCTTCTCGAGCTGCGCAAGGATAGGTCGAATTTTCTCATTTT
DNA 2: AAAATGAGAAAATTCGACCTATCCTTGCGCAGCTCGAGAAGCTCTTACTTTGATCGGATCCATGAATGAACAACAA
For the molecule B2, the binding result is listed as “no binding” in data set [3] (label: 5' 6-FAM on one strand, 3' overhang 24 nt); “binds” in data set [4]; “binds” in data set [5].

B3: substrate b (dsDNA)
DNA 1: CAAAGTAAGAGCTTCTCGAGCTGCGCAAGGATAGGTCGAATTTTCTCATTTT
DNA 2: ATCGGATCCATGAATGAACAACAAAAAATGAGAAAATTCGACCTATCCTTGCGCAGCTCGAGAAGCTCTTACTTTG
As to B3, the binding result in data set [3] (label: 5' 6-FAM on one strand, 5' overhang 24 nt) is on record as “no binding”; in data set [6], “binds”; in data set [7] it was “binds”.

B4: substrate c (dsDNA)
DNA 1: CAAAGTAAGAGCTTCTCGAGCTGCGCAAGGATAGGTCGAATTTTCTCATTTT
DNA 2: AAAATGAGAAAATTCGACCTATCCTTGCGCAGCTCGAGAAGCTCTTACTTTG
Regarding B4, the binding result in data set [3] (label: 5' 6-FAM on one strand, blunt) is “no binding”.
